From patent US10533044B2, “Integrin Antagonists” (The General Hospital Corporation, priority 2014, dated 2020)
No end group written: not given here.

What was measured:
α5β1 = α5β1 (Homo sapiens, UniProt P05556+P08648); conditions: Moore et al, 2013; cited from earlier work
αVβ5 = αVβ5 (Homo sapiens, UniProt P06756+P18084); conditions: Moore et al, 2013; cited from earlier work
K562-αVβ3 cells = assay: Mn2+-induced spreading of K562-αVβ3 cells on immobilized FN forms; format: cell-based, human; conditions: 1 mM Mn2+
Procedure: The various FN-coated surfaces were washed with PBS, and blocked with bovine serum albumin (5% w/v in PBS; lh; 25° C.). K562-αVβ3 cells (5×10^4) were added (in TBS; 1 mM Mn^2+), in the absence or presence of LM609 mAb (10 μg/ml, added 15 min prior to plating). Cells were incubated (2 h; 37° C.), washed three times in warm TBS and fixed with 4% formaldehyde (in PBS; 25° C.; 10 min). Images were captured using an inverted phase microscope (Zeiss Axiovert 40CFL) fitted with a powershot G12 Cannon Camera. ImageJ 1.48a software (National Institutes of Health, USA) was used to quantify cell spreading of 300-400 random selected cells. Spread cells were clearly distinguishable from round, refringent non-spread cells. Representative phase contrast images were collected using Zeiss Axiovert 35 inverted microscope using a CCD camera and Spot software (Diagnostics Instruments). Adhesion of transiently transfected HEK293 expressing equivalent amounts of αVβ3(N339/S) or αV(N266/Q)β3(N339/S) was done by adding cells (3×10^4) in TBS containing Ca^2+/Mg^2+ and 0.1% BSA (w/v) to FN-coated surfaces (45 min; 25° C.). Non-adherent cells were removed by washing and adherent cells fixed (2% paraformaldehyde; 30 min; 25° C.), stained (0.1% Crystal Violet; 30 min; 25° C.), washed with water, air dried and then solubilized (1% SDS). Relative cell attachment was estimated by absorbance of the lysates at 540 nm measured using a SpectraMax M2E microplate reader (Molecular Devices, Sunnyvale, Calif.).

αVβ3 ectodomain = molecular target: T1, αVβ3 ectodomain (Homo sapiens, UniProt P05106+P06756); assay: Hydrodynamic shift assay (molecular sieve chromatography, Stokes radius); conditions: in Mn2+ (6.3 nm without ligand)
T1 construct: αVβ3 ectodomain was incubated alone or with FN10; made in house; host or cells: insect cells
T1 sequence (P06756 31-987): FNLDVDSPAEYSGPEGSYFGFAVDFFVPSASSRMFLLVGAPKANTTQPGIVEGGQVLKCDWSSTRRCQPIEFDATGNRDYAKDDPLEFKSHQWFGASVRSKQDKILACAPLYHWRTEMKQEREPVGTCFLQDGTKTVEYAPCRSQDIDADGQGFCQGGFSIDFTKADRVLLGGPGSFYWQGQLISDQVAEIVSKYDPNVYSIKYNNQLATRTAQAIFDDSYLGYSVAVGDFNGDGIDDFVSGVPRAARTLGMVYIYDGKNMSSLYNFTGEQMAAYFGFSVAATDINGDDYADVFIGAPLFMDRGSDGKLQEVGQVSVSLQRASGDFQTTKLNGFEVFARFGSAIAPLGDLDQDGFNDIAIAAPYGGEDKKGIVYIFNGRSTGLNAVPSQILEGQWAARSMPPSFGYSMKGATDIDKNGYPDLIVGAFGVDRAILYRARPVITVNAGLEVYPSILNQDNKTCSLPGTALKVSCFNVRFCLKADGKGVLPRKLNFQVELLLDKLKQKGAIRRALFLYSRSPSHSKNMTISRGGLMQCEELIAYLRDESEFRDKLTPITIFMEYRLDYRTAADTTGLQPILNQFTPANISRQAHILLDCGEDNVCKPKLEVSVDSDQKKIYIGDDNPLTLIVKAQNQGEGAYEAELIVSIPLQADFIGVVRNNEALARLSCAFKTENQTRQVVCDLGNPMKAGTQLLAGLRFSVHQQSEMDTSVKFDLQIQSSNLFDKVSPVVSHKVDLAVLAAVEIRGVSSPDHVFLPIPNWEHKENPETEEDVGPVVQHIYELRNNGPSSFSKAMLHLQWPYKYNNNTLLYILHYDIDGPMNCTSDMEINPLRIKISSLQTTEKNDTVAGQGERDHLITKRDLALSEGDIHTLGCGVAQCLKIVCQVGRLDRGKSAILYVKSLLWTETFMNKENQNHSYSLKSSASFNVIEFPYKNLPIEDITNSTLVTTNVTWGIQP
T1 sequence (P05106 27-718): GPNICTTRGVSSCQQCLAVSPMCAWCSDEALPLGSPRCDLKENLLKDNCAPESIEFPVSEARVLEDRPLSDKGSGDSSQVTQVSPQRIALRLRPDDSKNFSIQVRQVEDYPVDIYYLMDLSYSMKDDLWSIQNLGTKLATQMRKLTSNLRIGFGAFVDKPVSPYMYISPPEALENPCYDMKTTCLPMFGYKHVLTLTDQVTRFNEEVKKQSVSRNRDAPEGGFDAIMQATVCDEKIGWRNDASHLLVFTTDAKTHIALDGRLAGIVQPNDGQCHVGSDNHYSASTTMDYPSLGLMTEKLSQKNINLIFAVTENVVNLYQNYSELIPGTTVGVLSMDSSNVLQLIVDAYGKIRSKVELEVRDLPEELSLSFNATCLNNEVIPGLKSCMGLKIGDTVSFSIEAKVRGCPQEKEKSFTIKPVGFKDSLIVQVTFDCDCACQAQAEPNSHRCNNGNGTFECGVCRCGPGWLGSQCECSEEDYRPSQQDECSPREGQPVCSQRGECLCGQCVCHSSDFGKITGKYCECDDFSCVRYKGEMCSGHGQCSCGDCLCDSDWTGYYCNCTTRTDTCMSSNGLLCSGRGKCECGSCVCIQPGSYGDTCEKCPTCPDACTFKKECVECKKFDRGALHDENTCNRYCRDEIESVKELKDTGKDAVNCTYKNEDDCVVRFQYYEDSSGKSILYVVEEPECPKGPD
Procedure: αVβ3 ectodomain was incubated alone or with FN10 (at 2:1 FN10/integrin molar ratio) in 145 mM NaCl and 25 mM Tris-HCl, pH 7.4 (TBS) containing Ca^2+, Ca^2+/Mg^2+ or Mn^2+ (20° C.; 1.5 h). Aliquots were taken and chromatographed at room temperature at this time point on a precalibrated Superdex S-200 GL column equilibrated buffer with the same metal ion composition used during the incubation, and Stokes radii were derived as described previously (Xiong, J. P. et al. The Journal of Cell Biology 186, 589-600 (2009)). The elution profiles resolved by molecular sieve chromatography were monitored in-line by UV adsorption at 280 nm. Unliganded ±FN10-treated αVβ3 species were resolved as single discrete symmetrical peaks. Excess FN10 served as an internal standard. Identity of resolved peaks was formally confirmed by SDS-PAGE.

αVβ3(N339/S) = molecular target: T2, αVβ3(N339/S) (Homo sapiens, UniProt P05106+P06756, N365S); assay: Binding of fluoresceinated FN10 to WT αVβ3 or αVβ3(N339/S) expressed on HEK293T cells
T2 construct: pcDNA3 plasmids encoding full-length WT αVβ3, αVβ3(Y122/A), αVβ3(N339/S); expressed in transfected cells; host or cells: HEK293T (transient)
T2 sequence (P06756 31-889 limits assumed): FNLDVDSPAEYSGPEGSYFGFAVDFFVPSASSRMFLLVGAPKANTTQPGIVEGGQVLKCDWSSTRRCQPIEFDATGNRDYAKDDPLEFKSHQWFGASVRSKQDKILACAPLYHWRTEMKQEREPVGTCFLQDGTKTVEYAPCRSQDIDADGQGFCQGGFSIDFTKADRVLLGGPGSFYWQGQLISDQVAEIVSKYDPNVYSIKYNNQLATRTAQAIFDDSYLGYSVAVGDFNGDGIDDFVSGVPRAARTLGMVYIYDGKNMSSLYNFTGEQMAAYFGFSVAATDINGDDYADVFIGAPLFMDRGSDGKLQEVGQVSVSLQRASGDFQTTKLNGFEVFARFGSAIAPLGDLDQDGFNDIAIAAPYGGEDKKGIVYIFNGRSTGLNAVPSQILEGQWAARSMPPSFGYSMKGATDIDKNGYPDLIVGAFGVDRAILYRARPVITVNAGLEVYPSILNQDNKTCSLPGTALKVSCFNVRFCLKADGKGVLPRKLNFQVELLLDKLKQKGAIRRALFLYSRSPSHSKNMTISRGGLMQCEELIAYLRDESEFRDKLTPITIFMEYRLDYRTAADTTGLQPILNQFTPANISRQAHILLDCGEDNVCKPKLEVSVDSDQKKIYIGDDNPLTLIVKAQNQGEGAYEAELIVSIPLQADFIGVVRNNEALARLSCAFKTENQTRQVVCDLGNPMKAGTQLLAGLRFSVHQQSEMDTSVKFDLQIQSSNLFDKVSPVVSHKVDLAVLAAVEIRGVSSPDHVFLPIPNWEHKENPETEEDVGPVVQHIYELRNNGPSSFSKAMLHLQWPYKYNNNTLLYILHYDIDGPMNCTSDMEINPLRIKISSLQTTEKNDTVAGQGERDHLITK
T2 sequence (P06756 891-1048 partner limits assumed): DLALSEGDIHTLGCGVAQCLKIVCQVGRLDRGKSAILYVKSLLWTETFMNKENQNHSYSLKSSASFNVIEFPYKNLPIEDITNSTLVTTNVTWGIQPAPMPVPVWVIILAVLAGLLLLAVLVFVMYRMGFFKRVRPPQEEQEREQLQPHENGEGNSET
T2 sequence (P05106 27-788 N365S): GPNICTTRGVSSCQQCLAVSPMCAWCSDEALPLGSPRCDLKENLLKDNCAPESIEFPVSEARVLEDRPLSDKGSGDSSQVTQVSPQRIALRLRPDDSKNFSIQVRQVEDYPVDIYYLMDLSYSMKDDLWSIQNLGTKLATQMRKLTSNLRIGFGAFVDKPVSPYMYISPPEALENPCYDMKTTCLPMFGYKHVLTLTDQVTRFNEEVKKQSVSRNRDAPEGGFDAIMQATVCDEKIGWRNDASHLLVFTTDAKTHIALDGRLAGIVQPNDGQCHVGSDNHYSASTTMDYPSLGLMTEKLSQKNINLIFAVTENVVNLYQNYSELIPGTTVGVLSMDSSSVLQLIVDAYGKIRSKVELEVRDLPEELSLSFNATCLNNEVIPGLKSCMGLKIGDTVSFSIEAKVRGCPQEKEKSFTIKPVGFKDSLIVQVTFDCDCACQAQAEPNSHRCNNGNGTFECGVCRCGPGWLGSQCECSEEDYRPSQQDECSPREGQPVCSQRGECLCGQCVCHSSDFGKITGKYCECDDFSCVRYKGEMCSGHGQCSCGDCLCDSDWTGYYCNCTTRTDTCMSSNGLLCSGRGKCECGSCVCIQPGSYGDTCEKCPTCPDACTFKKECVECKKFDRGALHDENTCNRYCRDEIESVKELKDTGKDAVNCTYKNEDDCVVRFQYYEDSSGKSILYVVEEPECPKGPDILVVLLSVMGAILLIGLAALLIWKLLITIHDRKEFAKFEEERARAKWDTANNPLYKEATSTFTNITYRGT
Procedure: The human erythroleukemia cell line K562 stably expressing recombinant αVβ3 (K562-αVβ3) and the human melanoma cell line M21, which constitutively expresses αVβ3, have been previously described (Xiong, J. P. et al. The Journal of Cell Biology 186, 589-600 (2009); and Mitjans, F. et al. J Cell Sci 108 (Pt 8), 2825-2838 (1995)). Cells were maintained in Iscove's modified Dulbecco's medium (K562-αVβ3) or RPMI1640 (M21), supplemented with 10% fetal calf serum, 2 mM L-glutamine, penicillin and streptomycin, plus G418 (0.5-1.0 mg/ml) in cultured K562-αVβ3. HEK293T (ATCC) were transiently co-transfected with pcDNA3 plasmids encoding full-length WT αVβ3, αVβ3(Y122/A), αVβ3(N339/S), or αV(N266/Q)β3(N339/S) using Lipofectamine 2000 reagent (Invitrogen) according to the manufacturer's protocol.
In cellular and biochemical assays where calcium, magnesium or manganese ions were used, they were each at final concentrations of 1 mM. […] Binding of soluble FN10 to αVβ3^+ cells was expressed as mean fluorescence intensity (MR), as determined using the CellQuest software (BD). […] Mean and SD from independent experiments were calculated, and compared using Student's t test.

[1] = test system: model tumor growth and angiogenesis; conditions: in vivo; cited from earlier work
αVβ3 [2] = molecular target: T3, αVβ3 (Homo sapiens, UniProt P05106+P06756); assay: Binding of fluoresceinated fluid-phase FN10 to K562-αVβ3 cells (flow cytometry); conditions: 1 mM Ca2+/Mg2+; fold over background
T3 construct: expressed in transfected cells
T3 sequence (P06756 31-889 limits assumed): as the sequence (P06756 31-889 limits assumed) above
T3 sequence (P06756 891-1048 partner limits assumed): as the sequence (P06756 891-1048 partner limits assumed) above
T3 sequence (P05106 27-788): as the sequence (P05106 27-788 N365S) above, with S339N counted along it
Procedure: In cellular and biochemical assays where calcium, magnesium or manganese ions were used, they were each at final concentrations of 1 mM. Cells stably (K562) or transiently (I-fEK293T) expressing WT or mutant forms of αVβ3 were preincubated (30 min; 0° C.) in the dark with Alexa647-conjugated AP3 (10 μg/ml), washed in Hepes-buffered saline (20 mM Hepes, 150 mM NaCl, pH 7.4) containing BSA (0.1% w/v; washing buffer, WB), incubated in 10 mM EDTA in WB (5 min; 25° C.), then washed three times in WB. […] Binding of soluble FN10 to αVβ3^+ cells was expressed as mean fluorescence intensity (MR), as determined using the CellQuest software (BD). Binding of soluble FN10 to HEK293T was normalized by dividing its MFI by the MFI of Alexa647-conjugated AP3 to the same cells and multiplying by 100. Mean and SD from independent experiments were calculated, and compared using Student's t test.

αVβ3 [3] = molecular target: T3, αVβ3; assay: AP5 epitope expression on K562-αVβ3 cells preincubated with knottin-Fc; format: cell-based; conditions: Ca2+ and Mg2+ 1 mM each
Procedure: Cells were washed, resuspended, fixed in 4% paraformaldehyde, and analyzed using FACSCalibur or BD-LSRII flow cytometers (BD Biosciences). Binding of soluble knottin dimers to αVβ3-K562 cells was expressed as mean fluorescence intensity (MFI), as determined using FlowJo software. […] Alexa647-labeled mAb AP5 Fab (10 μg/ml) was added, and cells incubated for an additional 30 min before washing. APC-labeled goat anti-mouse Fc-specific antibody was added to anti-LIBS-1- or anti-LIBS-6-bound M21 cells for an additional 30 min at 4° C. Cells were then washed, resuspended, fixed in 4% paraformaldehyde and analyzed by flow cytometry. AP5 epitope expression was measured and expressed as MFI.
Cells were washed, resuspended, fixed in 4% paraformaldehyde, and analyzed using FACSCalibur or BD-LSRII flow cytometers (BD Biosciences). Binding of soluble knottin dimers to αVβ3-K562 cells was expressed as mean fluorescence intensity (MFI), as determined using FlowJo software. […] APC-labeled goat anti-mouse Fe-specific antibody was added to anti-LIBS-1- or anti-LIBS-6-bound M21 cells for an additional 30 min at 4° C. Cells were then washed, resuspended, fixed in 4% paraformaldehyde and analyzed by flow cytometry. AP5 epitope expression was measured and expressed as MFI.

αVβ3 [4] = molecular target: T3, αVβ3; assay: Binding of knottin-Fc fusion proteins to K562-αVβ3 cells (FACS); conditions: Fc fusion in culture supernatant; Ca2+ and Mg2+ 1 mM each
Excerpt: The wild type and modified versions were transiently expressed in HEK293 cells grown in 3% FBS. Culture supernatant contained equivalent amounts of the respective fusion proteins (verified by ELISA) and of the correct size (using western blotting with anti-his tag antibody). Binding of each to K562 cells expressing recombinant αVβ3 (K562-αVβ3) was examined using FACS as described in the methods section of the above-referenced paper, except that the unlabeled bound knottin was detected by adding fluorescienated anti-human Fc mAb.
Wild type and P/W substituted forms of knottin 2.5 F were expressed as Fc fusion proteins in mammalian cells and their abilities to bind cellular αVβ3 and to express the LIBS mAb AP5 were compared. αVβ3-K562 (1×10^6) cells were suspended in 100 μl of culture supernatant containing equivalent amounts (based on ELISA) of WT knottin 2.5 F-Fc fusion protein, knottin 2.5 F (P/W)-Fc, WT knottin 2.5 D-Fc, or knottin 2.5 F (A/W)-Fc or medium alone and incubated for 30 min; 25° C., washed in 400 μl buffer and fluoresceinated anti-FC-specific antibody added for an additional 30 min at 4° C. Cells were washed, resuspended, fixed in 4% paraformaldehyde, and analyzed using FACSCalibur or BD-LSRII flow cytometers (BD Biosciences). Binding of soluble knottin dimers to αVβ3-K562 cells was expressed as mean fluorescence intensity (MFI), as determined using FlowJo software. […]

αIIbβ3^N/S = molecular target: T4, αIIbβ3^N/S (Homo sapiens, UniProt P05106+P08514, N365S); assay: Binding of fluorescein-tagged hFN10-G to preactivated cellular αIIbβ3(N/S); conditions: N339 to S activation
T4 construct: expressed in transfected cells
Excerpt: (§1) FIG. 9. […] (A) Superposed RGD-containing loops of hFN10 (gray in original), hFN10-G (pink in original) onto the RGD loop of frog γC (green in original). Sphere represents the metal ion at MIDAS.

αVβ3^N/S = αVβ3^N/S (Homo sapiens, UniProt P05106+P06756, N365S); assay: Binding of fluorescein-tagged hFN10-G to preactivated cellular αVβ3(N/S); design: pcDNA3 plasmids encoding full-length WT αVβ3, αVβ3(Y122/A), αVβ3(N339/S); expressed in transfected cells; host or cells: HEK293T (transient); conditions: N339 to S activation
Chain of αVβ3^N/S (P06756 31-889 limits assumed): as the sequence (P06756 31-889 limits assumed) above
Chain of αVβ3^N/S (P06756 891-1048 partner limits assumed): as the sequence (P06756 891-1048 partner limits assumed) above
Chain of αVβ3^N/S (P05106 27-788 N365S): as the sequence (P05106 27-788 N365S) above
Excerpt: as §1

Chain of αVβ5 (P06756 31-889 limits assumed): as the sequence (P06756 31-889 limits assumed) above
Chain of αVβ5 (P06756 891-1048 partner limits assumed): as the sequence (P06756 891-1048 partner limits assumed) above
Chain of αVβ5 (P18084 24-799): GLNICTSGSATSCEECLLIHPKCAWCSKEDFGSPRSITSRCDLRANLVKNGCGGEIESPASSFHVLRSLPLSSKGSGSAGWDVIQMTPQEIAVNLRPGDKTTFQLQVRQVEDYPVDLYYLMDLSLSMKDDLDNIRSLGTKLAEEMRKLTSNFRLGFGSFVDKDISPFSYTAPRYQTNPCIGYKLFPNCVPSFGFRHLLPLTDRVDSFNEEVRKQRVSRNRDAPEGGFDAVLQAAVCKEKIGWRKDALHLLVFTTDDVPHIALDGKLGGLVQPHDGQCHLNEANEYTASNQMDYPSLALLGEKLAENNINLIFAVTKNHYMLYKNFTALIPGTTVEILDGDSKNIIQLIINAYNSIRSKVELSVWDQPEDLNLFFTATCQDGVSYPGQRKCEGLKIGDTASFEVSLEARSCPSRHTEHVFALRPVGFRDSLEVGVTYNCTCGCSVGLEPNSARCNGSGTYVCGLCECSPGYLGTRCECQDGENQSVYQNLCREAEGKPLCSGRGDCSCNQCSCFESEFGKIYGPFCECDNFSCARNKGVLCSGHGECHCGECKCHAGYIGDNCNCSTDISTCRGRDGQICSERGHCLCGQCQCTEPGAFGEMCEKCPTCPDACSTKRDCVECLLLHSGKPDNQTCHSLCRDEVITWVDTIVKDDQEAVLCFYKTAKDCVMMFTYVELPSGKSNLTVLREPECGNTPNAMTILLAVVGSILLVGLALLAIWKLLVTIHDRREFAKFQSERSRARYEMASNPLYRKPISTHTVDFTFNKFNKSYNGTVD

knottin 2.5 F: cysteine-knot peptide, chemically synthesized, published sequence (Kimura et al 2009) (GCPRPRGDNPPLTCSQDSDCLAGCVCGPNGFCG)
Binding to integrin α5β1 (α5β1): binds | Binding to integrin αVβ5 (αVβ5): binds

full-length FN: full-length human plasma fibronectin from Sigma-Aldrich
Spreading of K562-αVβ3 cells on immobilized ligand (K562-αVβ3 cells): extensive spreading

hFN10: mutant high affinity form of the 10th type-III domain of fibronectin, loop PRGDWNEG, SEQ ID NO: 9
Stokes' radius (Rs) of αVβ3 complex (αVβ3 ectodomain): 6.3 nm | Binding to WT αVβ3 versus active αVβ3(N339/S) (αVβ3(N339/S)): similar | Spreading of K562-αVβ3 cells on immobilized ligand (K562-αVβ3 cells): little spreading

CC(C)[C@H]1C(=O)N[C@@H](CCCN=C(N)N)C(=O)NCC(=O)N[C@@H](CC(=O)O)C(=O)N[C@H](Cc2ccccc2)C(=O)N1C [cilengitide]
Effect on model tumor growth and angiogenesis [1]: paradoxically stimulated model tumor growth and angiogenesis

wtFN10: 10th type-III RGD-domain of wild-type human fibronectin, loop GRGDSPAS, SEQ ID NO: 20 [reference compound]
Stokes' radius (Rs) of αVβ3 complex (αVβ3 ectodomain): 6.6 nm | Binding of fluoresceinated FN10 to K562-αVβ3 (αVβ3 [2]): low background | Spreading of K562-αVβ3 cells on immobilized ligand (K562-αVβ3 cells): extensive spreading

P/W knottin 2.5 F: knottin 2.5 F with Proline 10 replaced by Trp, expressed as Fc fusion protein (GCPRPRGDNWPLTCSQDSDCLAGCVCGPNGFCG; disulfide (positions not given here); also: cystine-knot disulfide bonds, pairing not given here, Fc fusion protein)
AP5 expression / integrin activation on K562-αVβ3 (αVβ3 [3]): suppressed AP5 expression | Binding to cellular αVβ3 (K562-αVβ3) (αVβ3 [4]): equivalent

B1: hFN10-G: hFN10 with a glycine inserted after proline 1492, SEQ ID NO: 29 (protein)
chain: SDVPRDLEVVAATPTSLLISWDAPAVTVRYYRITYGETGGNSPVQEFTVPGSKSTATISGLKPGVDYTITVYAVTPGRGDWNEGSKPISINY
Binding to preactivated cellular αIIbβ3^N/S (αIIbβ3^N/S): some binding | Binding to preactivated cellular αVβ3^N/S (αVβ3^N/S): did not bind
